Source: patent publication US20210030838A1, “CHEMOTAXIS-POTENTIATING PEPTIDES AND USES THEREOF” (University of Copenhagen, priority 2017, published 2021)
Blank lines part the entries; values can stand above or below the molecule they belong to.

Tests used:
CCR7 = target: T1, CCR7 (Homo sapiens, UniProt P32248); assay: CCR7 signalling via Gαi (cAMP decrease, Camyel BRET) in transfected CHO cells; type: cell-based; conditions: BRET ratio; for G-protein signalling via CCR7 induced by the chemokine itself (comparison): FIG. 4A-D; for effect of peptide on CCL19-induced CCR7 signalling / effect of peptide on CCL19 chimera-induced CCR7 signalling / effect of peptide on full-length CCL21-induced CCR7 signalling / effect of peptide on tailless CCL21-induced CCR7 signalling: peptide 10 μM
T1 construct: expressed in transfected cells; host or cells: CHO cells, transient lipofectamine co-transfection with the Camyel cAMP BRET sensor
T1 sequence (P32248 25-378): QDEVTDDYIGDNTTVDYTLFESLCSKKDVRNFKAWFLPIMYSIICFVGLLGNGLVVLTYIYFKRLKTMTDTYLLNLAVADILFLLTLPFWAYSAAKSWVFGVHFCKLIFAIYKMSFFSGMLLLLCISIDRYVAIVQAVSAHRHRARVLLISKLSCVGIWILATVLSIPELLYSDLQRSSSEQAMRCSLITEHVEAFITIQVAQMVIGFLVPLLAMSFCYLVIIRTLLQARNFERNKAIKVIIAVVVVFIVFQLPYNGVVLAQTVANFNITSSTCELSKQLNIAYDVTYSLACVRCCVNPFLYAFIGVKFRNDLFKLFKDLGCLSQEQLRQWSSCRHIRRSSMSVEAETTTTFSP
Procedure: CCR7 signalling induced by CCL19, CCL21, CCL19 chimera (CCL19 with CCL21 tail) and tailless CCL21 was investigated. Signalling was detected as a decrease in cAMP which is reflected by an increase in BRET (Bioluminescence resonance energy transfer) ratio.
CHO cells were grown in RPMI medium with 10% FBS and 1% Penicillin/Streptomycin. Cells where seeded in a concentration yielding 1,000,000 cells/well on transfection day (using 6-well-plates).
Cells were transfected with CCR7 and Camyel-encoding plasmids (in 1:5 ratio) using lipofectamine with a total of […] of DNA and […] lipofectamine per well. After 24 hours, the cells where washed in PBS and resuspended in PBS with glucose (final concentration 5 mM).
After harvesting, cells where pooled in two groups. One group was used as a control, whereas the other was supplemented with SEQ ID NO: 1 (CCL21 tail peptide (D1-4)) in a final concentration of 10 μM.
The cells where plated in a 96-well black-white iso plate according to setup. Coelenterazine (final concentration of 5 μM) was added and cells were incubated for 10 min. The 4 ligands (CCL19, CCL21, CCL19 chimera, and tailless CCL21) were added to respective wells. An equal amount chemokine buffer was added to wells without ligands. Forskolin was added to the wells 5 min after addition of ligands.
The BRET ratio was measured as the ratio eYFP/RLuc (BRET 525 emission/BRET 485 emission). In the absence of ligand, bioluminescence resonance energy transfer (BRET) between RLuc and eYFP, both harboured by the Camyel sensor, is high, giving rise to emission from both RLuc and eYFP and a concomitant high BRET ratio. When cAMP binds to the camyel sensor, bioluminescence resonance energy transfer from RLuc to eYFP is decreased, lowering emission from eYFP and thus lowering the BRET ratio. This means that stimulation of receptors that signal via an increase in cAMP leads to a decrease in BRET ratio. The opposite is the case upon stimulation of chemokine receptors that signal via a decrease in cAMP, giving rise to an increase in eYFP and thus BRET ratio.

neutrophil = conditions: through inhibition of GAG-binding of CXCL8; cited from earlier work
[1] = test system: monocyte derived human DCs (moDC); assay: Ibidi 3D μ-slide chemotaxis assay of monocyte derived human DCs (moDC); type: cell-based; conditions: for potentiating effect on CCL21 induced chemotaxis of moDC (in words): FIG. 3, 6, 7, 8; for potentiation of moDC chemotaxis induced by CCL19: CCL19 1 and 10 nM, FIG. 1 column 5-8
Procedure: Ibidi3D μ-slide chemotaxis assay. Mature monocyte derived human DCs were thawed by adding pre-warmed X-vivo, 2% FCS and Glutamine, dissolving in a total of 10 ml of medium. After centrifugation (220×g, 5 min), the DCs were resuspended in fresh medium and left to acclimatize for 20 min.
The collagen mixture with cells was prepared according to the manufacturer's protocol. Briefly, 10 μl 7.5% NaHCO3 was mixed with 20 μl 10×MEM and 150 μl Pure Col was added. After mixing, 90 μl of a mixture of DCs (1×10^6 cells/ml) and CCL21 Tail peptide (final concentration 10 μM) was added. The cell/collagen solution was transferred to the ibidi μ-slide channel holding 6 μl. The collagen with cells was allowed to crosslink in the incubator for 45 minutes in a humidified petridish (holding napkins wetted in sterile water). While filling sink and source reservoirs, the channel and second reservoir were kept plugged. Medium with chemokine buffer (X-vivo 15, 2% HS, glutamine) and Tail-peptide was added to the sink (60 μl), and medium with chemokine plus Tail-peptide was added to the source (60 μl). The setup was transferred to Time-lapse. Cells were tracked for 10 hours and films were analyzed using Autozell tracking program. A population based chemotactic index (CI) was extracted using MatLab.

[2] = test system: monocyte derived human DCs (moDC); assay: as above; type: cell-based; conditions: 10 nM CCL21; peptide dose dependent; FIG. 1 column 1-4
[3] = test system: CT26-FL3-luc cancer cells; assay: In vivo cancer growth of CT26-FL3-luc cells in Balb/c mice (bioluminescence, IVIS); conditions: FIG. 5; for tumor growth (bioluminescent signal, total flux): Balb/c mice
Procedure: SEQ ID NO: 1 was tested for its effect on in vivo cancer growth in mice. Female Balb/c mice were injected intraperitoneally with 1.5×10^5 CT26-FL3-luc cancer cells on day 0. The CT26-FL3-luc cell line is derived from a highly metastatic murine colorectal cancer and has been engineered to express luciferase. On days 1, 2, and 3, the mice were injected intraperitoneally with either 0.25 μg murine CCL21, 20 μg human CCL21-Tail peptide (SEQ ID NO: 1), or vehicle (PBS). The CCL21 concentration was determined based on previously published in vivo experiments using CCL21. Administration of SEQ ID NO: 1 functions by a different mechanism than administration of CCL21 as SEQ ID NO: 1 affects the distribution of endogenous CCL21 in the surrounding tissue. Cancer growth was followed over time in live animals by injecting luciferin intraperitoneally and measuring the bioluminescent signal arising from the luciferase-expressing cancer cells using an In Vivo Imaging System (IVIS®) scanner. The bioluminescent signal (total flux) was used to quantify the cancer growth. The number of mice per group was 5-7, and data is shown as mean±SEM.

tumour cells = conditions: CCL21 administered to tumor sites; cited from earlier work

- G-protein signalling via CCR7 induced by the chemokine itself (comparison) (CCR7): more potent than CCL21
Molecule: CCL19: chemokine, endogenous ligand of CCR7

Molecule: CXCL9(74-103): CXCL9 C-terminal peptide capable of binding GAGs (Vanheule et al. 2017) (KKKQKNGKKHQKKKVLKVRKSQRSRQKKTT; UniProt Q07325 96-125, looked up, fragment)
- CXCL8-induced neutrophil migration (neutrophil): inhibit CXCL8-induced neutrophil migration

Molecule: KDRGASKTG KKGKGSKGCK RTERSQTPKG P (KDRGASKTGKKGKGSKGCKRTERSQTPKGP; listed as Homo sapiens) [SEQ ID NO: 6, CCL21 82-111]
- potentiating effect on CCL21 induced chemotaxis of moDC (in words) [1]: reduced capability to potentiate chemotaxis

Molecule: PSPQKPAQGCRKDRGASKTGK (PSPQKPAQGCRKDRGASKTGK; listed as Homo sapiens) [SEQ ID NO: 36, C terminally truncated fragment of CCL21 71-111]
- potentiating effect on CCL21 induced chemotaxis of moDC (in words) [1]: did not potentiate chemotaxis

- effect of peptide on CCL19-induced CCR7 signalling (CCR7; FIG. 4): no effect
- effect of peptide on CCL19 chimera-induced CCR7 signalling (CCR7; FIG. 4): potentiated
- effect of peptide on full-length CCL21-induced CCR7 signalling (CCR7; FIG. 4): potentiated
- effect of peptide on tailless CCL21-induced CCR7 signalling (CCR7; FIG. 4): no effect
- effect of peptide on CCL19 chimera-induced CCR7 signalling (CCR7; FIG. 4, listed as CCL21 71-111): increased CCR7 signalling
- effect of peptide on full-length CCL21-induced CCR7 signalling (CCR7; FIG. 4, listed as CCL21 71-111): increased CCR7 signalling
Molecule: PSPQKPAQGCRKDRGASKTGKKGKGSKGCKRTERSQTPKGP (PSPQKPAQGCRKDRGASKTGKKGKGSKGCKRTERSQTPKGP; listed as Homo sapiens) [SEQ ID NO: 1, full length C-terminal tail of CCL21, CCL21 71-111 (D1-D4)]
- potentiation of moDC chemotaxis induced by CCL21 [2]: up to 26 fold
- effect of peptide on CCL19-induced CCR7 signalling (CCR7; FIG. 4, listed as CCL21 71-111): essentially no difference in CCR7 signalling
- effect of peptide on tailless CCL21-induced CCR7 signalling (CCR7; FIG. 4, listed as CCL21 71-111): essentially no difference in CCR7 signalling
- potentiation of moDC chemotaxis induced by CCL19 ([1]; peptide 10 uM): less than two fold
- potentiation of moDC chemotaxis induced by CCL19 ([1]; peptide 10 uM, listed as CCL21 71-111): only two fold
- potentiation of moDC chemotaxis induced by CXCL12gamma ([1]; CXCL12gamma 20 and 100 nM, peptide 10 uM, FIG. 1 column 9-12): no strong chemotaxis signal
- potentiating effect on CCL21 induced chemotaxis of moDC (in words) [1]: retained full potency
- tumor growth (bioluminescent signal, total flux) ([3]; 20 μg peptide intraperitoneally on days 1, 2, 3): decreased tumor growth
- effectiveness on tumor growth compared with CCL21 treatment ([3]; 20 μg peptide vs 0.25 μg murine CCL21, intraperitoneally): more effective than treatment with the chemokine CCL21

Molecule: RKDRGASKTGKKGKGSKGCKRTERSQTPKGP (RKDRGASKTGKKGKGSKGCKRTERSQTPKGP; listed as Homo sapiens) [SEQ ID NO: 4, CCL21 81-111 (D2-D4)]
- potentiating effect on CCL21 induced chemotaxis of moDC (in words) [1]: retained full potentiating effect

Molecule: TG KKGKGSKGCK RTERSQTPKG P (TGKKGKGSKGCKRTERSQTPKGP; listed as Homo sapiens) [SEQ ID NO: 13, CCL21 89-111]
- potentiating effect on CCL21 induced chemotaxis of moDC (in words) [1]: retain full potentiating effect

- G-protein signalling via CCR7 induced by the chemokine itself (comparison) (CCR7): resembles CCL21 signalling
B1: CCL19 chimera: CCL19 with CCL21 Tail peptide attached at the C-terminus (protein)
chain: GTNDAEDCCLSVTQKPIPGYIVRNFHYLLIKDGCRVPAVVFTTLRGRQLCAPPDQPWVERIIQRLQRTSAKMKRRSSPSPQKPAQGCRKDRGASKTGKKGKGSKGCKRTERSQTPKGP

B2: murine CCL21: murine chemokine CCL21 injected intraperitoneally as comparison treatment (protein, UniProt P84444 24-133, looked up)
C-C motif chemokine 21a: SDGGGQDCCLKYSQKKIPYSIVRGYRKQEPSLGCPIPAILFSPRKHSKPELCANPEEGWVQNLMRRLDQPPAPGKQSPGCRKNRGTSKSGKKGKGSKGCKRTEQTQPSRG
- tumor growth (bioluminescent signal, total flux) ([3]; 0.25 μg murine CCL21 intraperitoneally on days 1, 2, 3): decreased tumor growth

B3: SDGGAQDCCLKYSQRKIPAKVVRSYRKQEPSLGCSIPAILFLPRKRSQAELCADPKELWVQQLMQHLDKTPSPQKPAQGCRKDRGASKTGKKGKGSKGCKRTERSQTPKGP (protein, listed as Homo sapiens)
chain: SDGGAQDCCLKYSQRKIPAKVVRSYRKQEPSLGCSIPAILFLPRKRSQAELCADPKELWVQQLMQHLDKTPSPQKPAQGCRKDRGASKTGKKGKGSKGCKRTERSQTPKGP
notes: chemokine, endogenous ligand of CCR7; full length CCL21 without the signal peptide
- growth of tumour cells (tumour cells): reduced growth of the tumour cells
